Sequences and labels used below:
B1: Twister Ribozyme (parent)
chain: AACACUGCCAAUGCCGGUCCCAAGCCCGGAUAAAAGUGGAGGGGGCGG

The variants in this data set derive from B1. The data set is described as follows: self-cleavage, relative activity (ratio to wild type); higher = more cleavage; co-transcriptional.
In the case of C5G G17U, the self-cleavage was 0.0612.
In the case of C5G G17C, the self-cleavage was 0.0444.
Consider C5G C20A, for which the self-cleavage was 0.0467.
The figure for C5G C26G is 0.122; for C5A C9U it is 0.0659; for C5A C9A it is 0.123.
The result for U6C A23G reads 0.0715; that for U6C A23C, 0.0308.
The figure for C5U G38A is 0.695; for C5U G38U it is 0.503; for C5U G38C it is 0.581.
With U6A G28U, the self-cleavage came out at 0.604.
The result for C5G A22C reads 0.571; that for U6A A10C, 1.19.
The figure for C5G U12G is 0.768.
As for C5A A32U, the self-cleavage was 0.454.
In the case of C5A A32C, the self-cleavage was 0.413.
The figure for U6A G7A is 0.224; for U6A G7U it is 0.101.
Consider A4U G47C, for which the self-cleavage was found to be 0.111.
The figure for A4U G36C is 0.0838; for A4U A33G it is 0.0639; for C5U G39C it is 0.171.
The result for A4U G17C reads 0.0361.
As for C5A C27G, the self-cleavage was 0.0807.
The figure for C5A C27A is 0.0839; for C5G C14A it is 0.557.
On to C5G C14G, for which the self-cleavage is 0.0784.
The result for A4U G13U reads 0.0584; that for A4U G13C, 0.0685; that for A4U C21A, 0.0381.
The result for A4U C21G reads 0.0541; that for A4U C21U, 0.0656; that for C5A G38C, 0.341.
The result for C5A G38A reads 0.206; that for C5A G38U, 0.0941; that for U6A G29C, 0.335.
As to A4U U6A, the self-cleavage amounted to 0.0622.
As for C5U C19U, the self-cleavage was determined as 0.819.
The result for C5U C19A reads 0.145; that for C5U C21G, 0.0614; that for C5G G28A, 0.354.
The result for C5U A35G reads 0.435; that for C5U G43U, 0.2; that for C5U G43C, 0.126.
The figure for C5G G16A is 0.341.
As to C5U A40G, the self-cleavage came to 0.133.
The figure for C5U A40C is 0.171.
The result for C5U G24U reads 0.0614.
The result for U6C A33G reads 0.429; that for C5G G39A, 0.197; that for U6A G42U, 0.163.
U6A G42A: the self-cleavage stood at 0.198.
The figure for C5U C27A is 0.21.
As for C5U C27G, the self-cleavage stood at 0.0666.
The result for A4U C25A reads 0.029; that for C5A G48A, 0.539.
The figure for C5A G48U is 0.577; for C5G C15A it is 0.251; for C5G C15U it is 0.467.
The result for A4U C19G reads 0.092; that for A4U C19U, 0.0724; that for U6A G43C, 0.172.
For the variant U6A G43U, the self-cleavage is 0.245.
In the case of A4U A10C, the self-cleavage is 0.156.
With A4U A10U, the self-cleavage is 0.0773.
The figure for U6A G13U is 0.129.
The result for C5A G28C reads 0.229.
The figure for C5G C19U is 0.504.
With C5G C19A, the self-cleavage worked out at 0.0784.
The result for C5G C19G reads 0.125; that for C5U G36A, 0.852; that for C5U G36C, 0.785.
The figure for C5U G28A is 0.572; for A4U G42A it is 0.0876; for A4U G42C it is 0.103.
For C5G A35C, the self-cleavage was 0.742.
The figure for C5G A35G is 0.696.
The figure for U6A A40C is 0.15.
The result for U6A A40G reads 0.178; that for U6A A32C, 0.753; that for A4U G41C, 0.0883.
For the variant C5A G7A, the self-cleavage turned out to be 0.0771.
The figure for C5A A11C is 0.169; for C5A A11U it is 0.351; for C5G C8G it is 0.0701.
Regarding C5G C8U, the self-cleavage was found to be 0.294.
The result for U6A A34G reads 0.731; that for U6A A34C, 0.859.
As to A4U U37C, the self-cleavage is 0.022.
The result for C5G G36U reads 0.724.
The figure for C5G A30C is 0.259.
The result for C5A U18G reads 0.0654; that for C5A U18A, 0.118; that for C5U C8U, 0.398.
On to U6A U18C, for which the self-cleavage amounted to 0.208.
The figure for C5U G47U is 0.691.
For the variant C5U G47C, the self-cleavage was determined as 0.315.
Turning to C5U G47A, the self-cleavage was determined as 0.727.
The result for C5A C14U reads 0.668; that for C5A C14A, 0.593.
The result for U6A G39U reads 0.125.
The result for U6A C26U reads 0.237; that for C5U U18G, 0.066; that for C5U U18A, 0.186.
Regarding A4U G29A, the self-cleavage is 0.173.
The figure for U6A G36A is 0.168.
The figure for U6A G36C is 0.136; for C5A A40C it is 0.129.
Regarding C5A A40U, the self-cleavage came to 0.107.
The figure for C5U G29C is 0.454; for C5U G29U it is 0.631.
The result for U6A A30C reads 0.428; that for U6A A30G, 0.884; that for C5A G41C, 0.0838.
The result for C5U A34C reads 0.166; that for A4G U37C, 0.99.
On to C5U C46A, for which the self-cleavage came to 0.764.
Regarding U6A C14A, the self-cleavage came to 0.866.
The result for U6A C14U reads 0.795; that for C5G A11C, 0.298.
As for A4U A32C, the self-cleavage stood at 0.1.
The result for A4U A32U reads 0.0867; that for A4U A32G, 0.0833.
As to C5G G13U, the self-cleavage is 0.0419.
The result for A4U U12A reads 0.0897; that for A4U U12G, 0.168.
The result for A4U U12C reads 0.0758; that for U6A C25U, 0.718; that for U6A C25G, 0.121.
The result for U6A C25A reads 0.0712; that for A4U, 0.136; that for U6A A11G, 0.897.
In the case of U6A A11C, the self-cleavage turned out to be 0.61.
The result for A4U G16C reads 0.0898; that for A4U G16U, 0.0436.
The figure for U6A G48C is 0.84.
The figure for A4U G38A is 0.0789; for C5U A32U it is 0.812.
C5U A32C: the self-cleavage was 0.887.
The result for C5A A34U reads 0.182.
The figure for C5A A34C is 0.119.
As for C5A G17C, the self-cleavage was found to be 0.0425.
The figure for A4U C20A is 0.0537; for U6A C20U it is 0.82; for C5G A33G it is 0.637.
The figure for A4U C8U is 0.0539; for A4U C8G it is 0.13; for U6A C8G it is 0.106.
The result for C5G U6C reads 0.16; that for A4U C46U, 0.125; that for A4U C46A, 0.115.
For the variant A4U C46G, the self-cleavage amounted to 0.105.
The figure for C5A G45U is 0.413; for C5U G13A it is 0.417.
The result for C5U G13U reads 0.157; that for C5U C9A, 0.349; that for C5U C9U, 0.337.
As to C5U C14U, the self-cleavage was determined as 0.68.
For C5U C14G, the self-cleavage was 0.0879.
The figure for C5U C14A is 0.673.
With U6C A30C, the self-cleavage worked out at 0.0653.
The result for U6C A30G reads 0.477.
The result for A4U A34C reads 0.057; that for A4U A34U, 0.068; that for C5G C25G, 0.0808.
Consider C5G C25A, for which the self-cleavage was determined as 0.0988.

The record behind these values is the RNAGym collection of RNA variant scans (doi:10.7554/elife.80360).
